Biological target: Rum pol (RumA′2B), His-tagged on RumB (integrative conjugative element R391)

S. aureus RecA (from UniProt A5ISG9 1-347) (natural protein)
primer extension (% PE) by Rum Mut-Sa transactivated with Sa RecA*: 4 % PE

Reference: article PMC9262582
